We go through two substances from PMC11891782.

Experiment in all cases: ELISA; dose-response: 1 μg component adsorbed; rLIC_13355 serially diluted 1:1 from 1 μg, 1 h at 37 °C; anti-His mAb detection; KD by non-linear regression, one site specific binding
In assay [1] the target is Laminin-1 from the basement membrane of Engelbreth-Holm-Swarm mouse sarcoma (mouse) (UniProt P19137).
Assay [2] concerns the target Native plasminogen, purified.
Assay [3] addresses Plasma fibronectin.

On to “rLIC_13355, recombinant putative lipoprotein encoded by the gene LIC_13355 of Leptospira interrogans (natural protein)”, for which the Kd (usually the constant that tells how readily two partners part at equilibrium) in assay [1] came out at 18.5 nM; in assay [2] it was 11.8 nM.

On to “rLIC_13355, recombinant putative lipoprotein encoded by the gene LIC_13355 of Leptospira interrogans (natural protein; other documents disagree on this pair)”, for which the Kd in assay [3] is 3490 nM.
